Experiment: 14C assay: 14CO2 capture from [14C]-carboxyl-labeled dicamba with IPTG-induced recombinant E. coli cells
Settings: for Dicamba Decarboxylase Activity: IPTG-induced recombinant E. coli cells, 14CO2 from [14C]-carboxyl-labeled dicamba; for Enzymatic Detection level: dicamba decarboxylation activity

Row | Molecule | Dicamba Decarboxylase Activity | Enzymatic Detection level
1 | 15 (protein, listed as Metarhizium anisopliae) MAQEIAKSHETSTRFAGFAVLPMRDPEAAAKELERAVKKLGFVGALVDHKTAHGNGFCEGNEYDVLWRKAEQLAVPIYLHPSWPTEKQFQQAYAGNYSPTAAGTIGGAMFNWHSEVGHHVLRLYAAGVFDKFPKLKIIIGHFGEMIPYMLDRIREQDHRLGKTGRTFSEVYDENIWITTSGVWSLDPMRCILANTKIDHILYSVDYPFTMNERGLEWFQELEKSGLLSEEDLALIAYKNCEKLLGVKAPTQD | Low | Low
2 | 14 (protein, listed as Talaromyces marneffei) MARGKVSFEEAYEIPALADKSREQAALYIAPKDLDRYLSEIKSPTGGRLDISNKNGIGYTIYSLTVPGVQGIADKAKAEKHATDVNNWIYNEIKDHRDRMGAFAALSMHDPVQAGQELERCVKKLGFHGALLNNWQHAGTDGETYIFYDHPSYDVFWQKCVELDVPVYLHPSAPSGKVFDTFFKDRRYLIGPPISFAQDVALHTMGLITNGVFDRNPKLKLILGHLGERIPQDLWRTNHWLEDVERPLADSRGDTMSRKPLLYYFKNNIYVTTSGHFSTETVKFVCDYFGADRILFSVDSPYEKIEEGAGWYDKDKDNLTKALGGPQQYLDVGRENAKKLFKLGKYHDCDA | Low | Low
3 | 12 (protein, listed as Zymoseptoria tritici) MALGKVAFEEAFALPRFKERTTWWAGLFAVDPEKHTREINDINKLRIEKMDQFGVGYTLLSYTAPGVQDVWQQEEADALAREVNDHVAAEIKGHEDRLGALATLSMHDPQTASAELRRCIKDYGFKGALVNDTQRNDESGTGMIFYDGPEWDVFWSTVQELDVPFYLHPRNPTGVFMEKLWAPRKWLVGPPLSFAQGVSLHLLGMVTNGTFDRFPNLQVIIGHLGEHLPFDLWRINHWFEDIKKPLGLDCKKTIREYFNENIWITTSGHFSTPTLEYCIKEIGAERILFSIDYPFEKFEDACDWYDGVELDGPDTVKKIGRENAKKLFKLGAFKDDSA | No | No
4 | 11 (protein, Aspergillus niger) MALGKIALEEAFALPRFEEKTRWWASLFSVDPETHVKEITDINKLRIEHADKYGVGYQILSYTAPGVQDIWDPVEAQALAVEINDYIAEQIRDKPDRFGAFATLSMHNPQEAASELRRCVQTYGFKGALVNDTQRAGPDGDDMIFYDNASWDIFWQTCTELDVPLYLHPRNPTGTIYEKLWADRKWLVGPPLSFAQGVSLHVLGMVTNGVFDRHPNLQLIMGHLGEHVPFDMWRINHWFEDRKKLLGLAETCKKTIREYFAQNIWITTSGHFSTTTLNFCMAEVGVDRILFSIDYPFETFEDACVWFDGAELNLSDKAKIGRDNAARLFKLGAFRDYDAKVKA | Low | Low
5 | 13 (protein, listed as Metarhizium acridum) MAHGKVALEEAFALPRLHEKTRWWASLFAVNPDKHAAEMTDITDIRINYMDKHGVGYTILSYTAPGVQDISDPKEAQALAVEINDYVAGAIKNHPDRFGAFATLSMRNPQEAATELKRCVTQYGFKGALVNDTQRAGEDDMIFYDGPEWDVFWSTVEELDVPFYLHPRNPTGSLYEKLWAKRKWLVGPPLSFAQGVSLHVLGMVTNGVFDRHPKLQVVLGHLGEHIPFDMWRINHWFEDVKKPLGLDCKKTIREYFQQNIWITTSGHFSTTTLQFCMAEVGADRILFSIDYPFECFADACDWYDGVPINLVDKAKIGRDNARRLFKLPEFKDSEKHVDA | No | No
